For test [1], the target named is T1, human EphA2 receptor (human, UniProt P29317 24-976).
T1 construct: whole, on cells; also called hu-EphA2
The test is described as follows: FACS titration on cells with human EphA2, same protocol (apparent KD).

Test [2] has as its target T1, human EphA2 receptor. As to the kind of experiment: FACS titration on cells with human EphA2, non-linear regression for one-site binding (apparent KD).
The target in test [3] is T2, monkey EphA2 on VERO cells (monkey (Cercopithecus aethiops)).
T2 construct: whole, on cells
The test is described as follows: FACS titration on monkey VERO cells, non-linear regression for one-site binding (apparent KD).

Test [4] concerns the target T1, human EphA2 receptor. The test is described as follows: FACS titration on HUVEC cells (apparent KD).
Another test has as its target T3, murine EphA2 receptor (murine, UniProt Q03145 26-977).
T3 construct: whole, on cells; also called mu-EphA2
As to the kind of experiment: FACS, cells over-expressing murine EphA2. A general note: Flow cytometry measures light scatter and fluorescence of single cells or particles in a stream.

The target of test [5] is T1, human EphA2 receptor. The test is described as follows: FACS titration on HUVEC cells, non-linear regression for one-site binding (apparent KD).

T1 sequence (P29317 24-976): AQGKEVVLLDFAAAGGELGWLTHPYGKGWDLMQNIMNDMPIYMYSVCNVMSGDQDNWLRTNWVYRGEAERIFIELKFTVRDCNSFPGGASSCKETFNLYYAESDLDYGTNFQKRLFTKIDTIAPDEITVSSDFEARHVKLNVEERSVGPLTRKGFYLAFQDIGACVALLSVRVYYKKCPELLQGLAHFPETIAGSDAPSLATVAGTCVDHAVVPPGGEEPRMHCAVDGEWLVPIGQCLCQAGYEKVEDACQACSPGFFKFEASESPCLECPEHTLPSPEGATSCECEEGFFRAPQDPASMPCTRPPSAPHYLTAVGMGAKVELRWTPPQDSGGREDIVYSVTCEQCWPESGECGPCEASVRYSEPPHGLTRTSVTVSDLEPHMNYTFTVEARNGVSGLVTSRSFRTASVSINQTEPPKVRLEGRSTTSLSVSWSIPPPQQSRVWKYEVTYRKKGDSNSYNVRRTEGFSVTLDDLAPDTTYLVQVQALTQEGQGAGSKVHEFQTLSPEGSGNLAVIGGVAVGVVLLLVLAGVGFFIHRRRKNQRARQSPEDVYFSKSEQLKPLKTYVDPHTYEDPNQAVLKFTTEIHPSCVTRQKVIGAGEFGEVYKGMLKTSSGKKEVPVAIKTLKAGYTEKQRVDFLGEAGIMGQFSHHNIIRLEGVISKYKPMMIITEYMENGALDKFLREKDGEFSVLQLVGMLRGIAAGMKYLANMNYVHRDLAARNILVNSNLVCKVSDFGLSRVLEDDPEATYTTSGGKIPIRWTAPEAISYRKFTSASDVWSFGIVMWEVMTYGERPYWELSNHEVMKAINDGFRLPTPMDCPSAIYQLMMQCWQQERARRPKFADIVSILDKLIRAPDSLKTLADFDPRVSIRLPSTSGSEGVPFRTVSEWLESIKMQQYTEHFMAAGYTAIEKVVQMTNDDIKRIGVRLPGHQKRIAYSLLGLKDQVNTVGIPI
T3 sequence (Q03145 26-977): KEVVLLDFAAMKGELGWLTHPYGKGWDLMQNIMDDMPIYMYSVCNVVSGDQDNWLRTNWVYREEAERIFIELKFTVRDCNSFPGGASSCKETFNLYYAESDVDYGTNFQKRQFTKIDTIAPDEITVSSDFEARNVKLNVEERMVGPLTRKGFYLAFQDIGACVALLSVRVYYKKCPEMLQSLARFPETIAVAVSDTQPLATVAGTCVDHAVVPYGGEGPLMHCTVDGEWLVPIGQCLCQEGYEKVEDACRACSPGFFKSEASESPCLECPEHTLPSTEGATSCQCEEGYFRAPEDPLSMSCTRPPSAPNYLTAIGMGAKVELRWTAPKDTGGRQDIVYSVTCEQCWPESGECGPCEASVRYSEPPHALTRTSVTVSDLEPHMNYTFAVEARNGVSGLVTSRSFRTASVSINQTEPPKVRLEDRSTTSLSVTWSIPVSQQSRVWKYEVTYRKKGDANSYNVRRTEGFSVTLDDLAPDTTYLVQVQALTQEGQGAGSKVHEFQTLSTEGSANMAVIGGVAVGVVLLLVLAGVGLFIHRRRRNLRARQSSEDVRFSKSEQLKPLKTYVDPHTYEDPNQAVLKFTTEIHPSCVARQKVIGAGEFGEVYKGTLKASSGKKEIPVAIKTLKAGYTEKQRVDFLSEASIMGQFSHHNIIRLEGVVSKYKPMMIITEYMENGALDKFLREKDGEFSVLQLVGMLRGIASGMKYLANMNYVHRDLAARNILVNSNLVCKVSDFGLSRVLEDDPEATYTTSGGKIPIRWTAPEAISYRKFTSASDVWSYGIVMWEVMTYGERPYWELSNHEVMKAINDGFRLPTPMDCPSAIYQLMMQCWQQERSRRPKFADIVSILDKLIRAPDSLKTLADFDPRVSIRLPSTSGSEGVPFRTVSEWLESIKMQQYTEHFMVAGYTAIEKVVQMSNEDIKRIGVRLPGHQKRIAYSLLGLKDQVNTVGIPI

B1: murine anti-EphA2 monoclonal antibody EphA2-N1 (antibody, V domains shown)
VH: EVQLQQSGPDLVKPGASVKISCKASGYRFTEYNMHWMKQSHGESLEWIGYIYPYNGDTGYRQKFKNMATLTADISSNTAYMELRSLTSDDSAVYFCARWGYGSGGGFTYWGQGTLVTVSA
VL: DIVLTQSPGSLAVSLGQRATISCRASESVDTYGNSFMHWYQQKAGQPPRLLIYRASNLESGIPARFSGSGSRTDFTLTINPVEADDVATYYCQQSNEDPLTFGAGTKLELKR
notes: Murine monoclonal antibody from hybridoma PTA-8407
On to B1, for which the Kd with human EphA2 receptor [1] amounted to 0.18 nM.

B2: murine anti-EphA2 monoclonal antibody 37.1F5 (antibody, V domains shown)
VH: EVQLQQSGPELVKPGASMKISCRASGYSFTGYTMNWVRQSHGKNLEWIGLINPHNGGSSYNLKFKGKATLTVDKSSSTAYMELLSLTSEDSAVYYCVRWGDYGSFAYWGQGTLVTVSA
VL: DIVLTQSPASLAVSLGQRATISCRASESVDTFGYSFIYWYQQKPGQPPRLLIYRASNLESGIPARFSGSGSRTDFTLTINPVEADDVATYYCQQSNEDPPTFGGGTKLEIKR
notes: Purified murine monoclonal antibody from hybridoma PTA-7661; also called mu37.1F5; 37.1F5 antibody
On to B2, for which the Kd in the test with human EphA2 receptor [2] was 0.07 nM; in test [3], 0.05 nM; with human EphA2 receptor [4], 0.01 nM.

B3: murine anti-EphA2 monoclonal antibody EphA2-N2 (antibody, V domains shown)
VH: EVQLQQSGPELVKPGASVKISCKASGYTFTDYNMHWVKQSHGKSLEWIGFIYPYNGGTGYNQRFKNKATLTVDTSSSTAYMEVRSLTSEDSAVYFCARGYYYGRHFDYWGQGTTLTVSS
VL: QIVLTQSPALMSASPGEKVTMTCSASSSVSYMYWYQQKPRSSPKPWIYITSNLASGVPARFSGSGSGTSYSLTISSMEAEDAATYYCQQWSSNPPTFGGGTKLEIKR
notes: Murine monoclonal antibody from hybridoma PTA-8408
For B3, the Kd in the test with human EphA2 receptor [1] was found to be 0.05 nM.

B4: murine anti-EphA2 monoclonal antibody 37.3D7 (antibody, V domains shown)
VH: QVQLQQPGSELVRPGASVQLSCKASGYSFTSYWMHWVRQRPGQGLQWIGNIYPGTGNTNYDEKFMNKATLTVDTYSSTTYMQLSSLTSEDSAVYYCARWGLVRYFFAMDYWGQGTSVTVSS
VL: QIVLTQSPAIMSASLGERVTMTCTVSSSVNSSYLHWYQQKPGSSPKLWIYSTSNLPSGVPARFSGSGSGTSYSLTISTIESEDAATYYCHQYHRSPQFTFGSGTKLEIKR
notes: Purified murine monoclonal antibody from hybridoma PTA-7660; also called mu37.3D7; 37.3D7 antibody
Consider B4, for which the figures for the Kd (in test [3]; in the test with human EphA2 receptor [5]) were 0.15 nM and 0.3 nM, respectively. The binding result with murine EphA2 receptor is reported as “binds”.

B5: murine anti-EphA2 monoclonal antibody 53.2H11 (antibody, V domains shown)
VH: EVQLQQSGPELVKPGASVKISCKASGYSFTAYYMHWVKQSHVKSLEWIGLVNPYNGFSSYNQNFEDKASLTVDKFSSTAYMELHSLTSEDSAVYYCAREFYGYRYFDVWGAGTAVTVSS
VL: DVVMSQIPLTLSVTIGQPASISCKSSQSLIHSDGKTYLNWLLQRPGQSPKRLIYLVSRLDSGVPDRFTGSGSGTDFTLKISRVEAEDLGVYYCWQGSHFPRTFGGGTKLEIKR
notes: Purified murine monoclonal antibody from hybridoma PTA-7662; also called 53.2H11 antibody
Regarding B5, the Kd with human EphA2 receptor [2] was determined as 0.14 nM; in test [3] it was 0.07 nM; with human EphA2 receptor [4], 0.06 nM. The binding result with murine EphA2 receptor is listed as “binds”.
